Results taken from PMC8594881.

What was measured:
Assay type in all cases: biochemical, Streptomyces melanosporofaciens
[1] = substrate: CC(C)=CCC/C(C)=C/CC/C(C)=C/CC/C(C)=C/COP(=O)(O)OP(=O)(O)O; experiment: steady-state kinetics, nonlinear fit of initial velocities; details: cyclization reaction; Mg2+-dependent
steady-state kinetics [2] = substrate: c1ccc2[nH]ccc2c1; experiment: steady-state kinetics; details: prenylation acceptor; saturating GPP as co-substrate; Mg2+-dependent
steady-state kinetics [3] = substrate: CC(C)=CCC/C(C)=C/COP(=O)(O)OP(=O)(O)O; experiment: steady-state kinetics; details: prenylation; saturating indole as co-substrate; Mg2+-dependent

B1: cyclooctat-9-en-7-ol synthase (CotB2) (Streptomyces melanosporofaciens) (protein)
chain: MTTGLSTAGAQDIGRSSVRPYLEECTRRFQEMFDRHVVTRPTKVELTDAELREVIDDCNAAVAPLGKTVSDERWISYVGVVLWSQSPRHIKDMEAFKAVCVLNCVTFVWDDMDPALHDFGLFLPQLRKICEKYYGPEDAEVAYEAARAFVTSDHMFRDSPIKAALCTTSPEQYFRFRVTDIGVDFWMKMSYPIYRHPEFTEHAKTSLAARMTTRGLTIVNDFYSYDREVSLGQITNCFRLCDVSDETAFKEFFQARLDDMIEDIECIKAFDQLTQDVFLDLIYGNFVWTTSNKRYKTAVNDVNSRIQ
- Km [1]: 43 ± 6 µM
- kcat [1]: (6.7 ± 0.3) × 10^−3 s^−1
- Km (steady-state kinetics [2]): 290 ± 60 µM
- Km (steady-state kinetics [3]): 390 ± 20 µM
